Results published in paper PMC11696352.

Molecular target: importin α5 (UniProt P52294)
Assay: Flag co-IP, immunoblot
Conditions: reference: Flag-GCLM wild type; sites T17

binding against the reference: weaker
Substance: GCLM (glutamate-cysteine ligase modifier subunit) (from UniProt P48507) Flag-GCLM T17A
